In data set [1] the target is T1, HpRap1A (Hansenula polymorpha DL-1, UniProt W1Q7Z6 1-613).
T1 sequence: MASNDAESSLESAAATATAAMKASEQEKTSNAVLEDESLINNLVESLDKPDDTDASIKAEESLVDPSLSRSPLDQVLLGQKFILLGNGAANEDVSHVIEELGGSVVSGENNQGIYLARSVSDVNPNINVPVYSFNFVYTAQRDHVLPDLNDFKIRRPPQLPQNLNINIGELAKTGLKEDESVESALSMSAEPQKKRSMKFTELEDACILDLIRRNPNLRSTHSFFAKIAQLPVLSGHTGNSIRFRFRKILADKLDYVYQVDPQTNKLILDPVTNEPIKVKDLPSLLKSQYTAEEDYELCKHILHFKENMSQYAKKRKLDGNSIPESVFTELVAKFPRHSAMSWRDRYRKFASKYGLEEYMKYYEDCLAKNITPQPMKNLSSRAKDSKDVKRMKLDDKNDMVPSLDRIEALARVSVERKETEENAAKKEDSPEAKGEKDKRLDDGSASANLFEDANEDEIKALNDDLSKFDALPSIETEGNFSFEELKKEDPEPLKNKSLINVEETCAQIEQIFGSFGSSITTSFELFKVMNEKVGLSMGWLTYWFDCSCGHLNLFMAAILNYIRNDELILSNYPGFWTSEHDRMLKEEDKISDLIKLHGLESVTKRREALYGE
Nature of the data set: competition SPR; score - vs VIIrAbs surface; SPR: 10 mM HEPES-NaOH pH 7.5, 150 mM NaCl, 0.5 mM DTT, 0.05% Tween 20, 1 mg/ml BSA, 0.02 mg/ml salmon sperm DNA; competition 2 nM protein with 20 or 200 nM competitor. EMSA: 20 mM HEPES-NaOH pH 7.5, 50 mM NaCl, 0.2 mg/ml BSA, 5% glycerol, 0.1 mg/ml salmon sperm DNA, room temperature. Conditions: protein: recombinant; blunt. On the technique in general: Mobility shift assays separate free from complexed probe on a gel.

In data set [2] the target is T2, HpRap1B (Hansenula polymorpha DL-1, UniProt W1QDN2 1-576).
T2 sequence: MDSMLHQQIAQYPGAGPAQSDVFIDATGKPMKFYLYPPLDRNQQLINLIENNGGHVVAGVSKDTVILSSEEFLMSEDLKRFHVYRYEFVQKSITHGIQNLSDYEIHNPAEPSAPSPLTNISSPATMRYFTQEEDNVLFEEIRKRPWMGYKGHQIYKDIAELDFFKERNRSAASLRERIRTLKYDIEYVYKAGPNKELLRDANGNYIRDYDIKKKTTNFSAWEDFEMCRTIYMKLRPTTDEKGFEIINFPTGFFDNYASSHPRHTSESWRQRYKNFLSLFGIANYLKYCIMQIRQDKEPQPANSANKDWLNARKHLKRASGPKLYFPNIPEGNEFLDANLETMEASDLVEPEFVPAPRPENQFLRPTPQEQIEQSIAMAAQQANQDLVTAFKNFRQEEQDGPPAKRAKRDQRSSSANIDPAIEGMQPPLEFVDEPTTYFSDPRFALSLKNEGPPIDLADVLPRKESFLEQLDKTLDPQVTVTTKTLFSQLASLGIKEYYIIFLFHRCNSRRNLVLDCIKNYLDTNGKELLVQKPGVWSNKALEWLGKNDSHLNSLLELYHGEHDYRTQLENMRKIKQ
Nature of the data set: competition SPR; score +++ vs PICKU surface; SPR: 10 mM HEPES-NaOH pH 7.5, 150 mM NaCl, 0.5 mM DTT, 0.05% Tween 20, 1 mg/ml BSA, 0.02 mg/ml salmon sperm DNA; competition 2 nM protein with 20 or 200 nM competitor. EMSA: 20 mM HEPES-NaOH pH 7.5, 50 mM NaCl, 0.2 mg/ml BSA, 5% glycerol, 0.1 mg/ml salmon sperm DNA, room temperature. The note with it: protein: recombinant; blunt.

Data set [3] has as its target T1, HpRap1A. Nature of the data set: SPR; kinetic fit; equilibrium Kd 38±15; SPR: 10 mM HEPES-NaOH pH 7.5, 150 mM NaCl, 0.5 mM DTT, 0.05% Tween 20, 1 mg/ml BSA, 0.02 mg/ml salmon sperm DNA; competition 2 nM protein with 20 or 200 nM competitor. EMSA: 20 mM HEPES-NaOH pH 7.5, 50 mM NaCl, 0.2 mg/ml BSA, 5% glycerol, 0.1 mg/ml salmon sperm DNA, room temperature. Conditions: protein: recombinant; 3' overhang 20 nt on strand 2. On the technique in general: Surface plasmon resonance follows binding to a sensor surface in real time, without labels.

Data set [4] addresses T2, HpRap1B. The data set can be described thus: EMSA; up to 250 nM protein, 50 nM DNA; SPR: 10 mM HEPES-NaOH pH 7.5, 150 mM NaCl, 0.5 mM DTT, 0.05% Tween 20, 1 mg/ml BSA, 0.02 mg/ml salmon sperm DNA; competition 2 nM protein with 20 or 200 nM competitor. EMSA: 20 mM HEPES-NaOH pH 7.5, 50 mM NaCl, 0.2 mg/ml BSA, 5% glycerol, 0.1 mg/ml salmon sperm DNA, room temperature. The note with it: protein: recombinant; label: 5' FAM on strand 1; blunt.

The target in data set [5] is T1, HpRap1A. The data set is described as above. Conditions: protein: recombinant; label: 5' FAM on strand 1; blunt.
Data set [6] deals with T1, HpRap1A. The data set can be described thus: SPR; SPR: 10 mM HEPES-NaOH pH 7.5, 150 mM NaCl, 0.5 mM DTT, 0.05% Tween 20, 1 mg/ml BSA, 0.02 mg/ml salmon sperm DNA; competition 2 nM protein with 20 or 200 nM competitor. EMSA: 20 mM HEPES-NaOH pH 7.5, 50 mM NaCl, 0.2 mg/ml BSA, 5% glycerol, 0.1 mg/ml salmon sperm DNA, room temperature. Conditions: protein: recombinant; 3' overhang 20 nt on strand 2.

Data set [7] addresses T2, HpRap1B. Nature of the data set: SPR; kinetic fit; SPR: 10 mM HEPES-NaOH pH 7.5, 150 mM NaCl, 0.5 mM DTT, 0.05% Tween 20, 1 mg/ml BSA, 0.02 mg/ml salmon sperm DNA; competition 2 nM protein with 20 or 200 nM competitor. EMSA: 20 mM HEPES-NaOH pH 7.5, 50 mM NaCl, 0.2 mg/ml BSA, 5% glycerol, 0.1 mg/ml salmon sperm DNA, room temperature. Conditions: protein: recombinant; 3' overhang 20 nt on strand 2.

Data set [8] concerns the target T2, HpRap1B. Nature of the data set: SPR; kinetic fit; equilibrium Kd 65±2; SPR: 10 mM HEPES-NaOH pH 7.5, 150 mM NaCl, 0.5 mM DTT, 0.05% Tween 20, 1 mg/ml BSA, 0.02 mg/ml salmon sperm DNA; competition 2 nM protein with 20 or 200 nM competitor. EMSA: 20 mM HEPES-NaOH pH 7.5, 50 mM NaCl, 0.2 mg/ml BSA, 5% glycerol, 0.1 mg/ml salmon sperm DNA, room temperature. Conditions: protein: recombinant; 3' overhang 20 nt on strand 2.

The target of data set [9] is T1, HpRap1A. The data set can be described thus: SPR; kinetic fit; SPR: 10 mM HEPES-NaOH pH 7.5, 150 mM NaCl, 0.5 mM DTT, 0.05% Tween 20, 1 mg/ml BSA, 0.02 mg/ml salmon sperm DNA; competition 2 nM protein with 20 or 200 nM competitor. EMSA: 20 mM HEPES-NaOH pH 7.5, 50 mM NaCl, 0.2 mg/ml BSA, 5% glycerol, 0.1 mg/ml salmon sperm DNA, room temperature. The note with it: protein: recombinant; 3' overhang 20 nt on strand 2.

Data set [10] addresses T2, HpRap1B. Nature of the data set: SPR; SPR: 10 mM HEPES-NaOH pH 7.5, 150 mM NaCl, 0.5 mM DTT, 0.05% Tween 20, 1 mg/ml BSA, 0.02 mg/ml salmon sperm DNA; competition 2 nM protein with 20 or 200 nM competitor. EMSA: 20 mM HEPES-NaOH pH 7.5, 50 mM NaCl, 0.2 mg/ml BSA, 5% glycerol, 0.1 mg/ml salmon sperm DNA, room temperature. The note with it: protein: recombinant; 3' overhang 20 nt on strand 2.

For data set [11], the target named is T1, HpRap1A. The data set can be described thus: SPR; kinetic fit; equilibrium Kd 12±3; SPR: 10 mM HEPES-NaOH pH 7.5, 150 mM NaCl, 0.5 mM DTT, 0.05% Tween 20, 1 mg/ml BSA, 0.02 mg/ml salmon sperm DNA; competition 2 nM protein with 20 or 200 nM competitor. EMSA: 20 mM HEPES-NaOH pH 7.5, 50 mM NaCl, 0.2 mg/ml BSA, 5% glycerol, 0.1 mg/ml salmon sperm DNA, room temperature. The note with it: protein: recombinant; 3' overhang 20 nt on strand 2.

Data set [12] addresses T2, HpRap1B. Nature of the data set: SPR; kinetic fit; equilibrium Kd 1.9±0.1; SPR: 10 mM HEPES-NaOH pH 7.5, 150 mM NaCl, 0.5 mM DTT, 0.05% Tween 20, 1 mg/ml BSA, 0.02 mg/ml salmon sperm DNA; competition 2 nM protein with 20 or 200 nM competitor. EMSA: 20 mM HEPES-NaOH pH 7.5, 50 mM NaCl, 0.2 mg/ml BSA, 5% glycerol, 0.1 mg/ml salmon sperm DNA, room temperature. The note with it: protein: recombinant; 3' overhang 20 nt on strand 2.

In data set [13] the target is T1, HpRap1A. Nature of the data set: SPR; kinetic fit; equilibrium Kd 1.8±0.5; SPR: 10 mM HEPES-NaOH pH 7.5, 150 mM NaCl, 0.5 mM DTT, 0.05% Tween 20, 1 mg/ml BSA, 0.02 mg/ml salmon sperm DNA; competition 2 nM protein with 20 or 200 nM competitor. EMSA: 20 mM HEPES-NaOH pH 7.5, 50 mM NaCl, 0.2 mg/ml BSA, 5% glycerol, 0.1 mg/ml salmon sperm DNA, room temperature. The note with it: protein: recombinant; 3' overhang 20 nt on strand 2.

Data set [14] deals with T2, HpRap1B. Nature of the data set: SPR; kinetic fit; equilibrium Kd 1.7±0.2; SPR: 10 mM HEPES-NaOH pH 7.5, 150 mM NaCl, 0.5 mM DTT, 0.05% Tween 20, 1 mg/ml BSA, 0.02 mg/ml salmon sperm DNA; competition 2 nM protein with 20 or 200 nM competitor. EMSA: 20 mM HEPES-NaOH pH 7.5, 50 mM NaCl, 0.2 mg/ml BSA, 5% glycerol, 0.1 mg/ml salmon sperm DNA, room temperature. Conditions: protein: recombinant; 3' overhang 20 nt on strand 2.

B1: PICKU (competitor) (dsDNA)
DNA 1: TGAACTAGGAGCGAGGTGTGTTAC
DNA 2: GTAACACACCTCGCTCCTAGTTCA
In the case of B1, the binding result in the data set with HpRap1A [1] is on record as “no binding”; with HpRap1B [2] it was “binds”.

B2: SACCE (SPR) (dsDNA)
DNA 1: GTGTGTGGGTGTGTGGGTGTGTG
DNA 2: CACACACCCACACACCCACACACCCTCTACGTCCTCCTGCTCC
As a reminder, the Kd is the free concentration of one partner at which half of the binding sites on the other are occupied at equilibrium, for simple one-to-one binding. Take B2: in the data set with HpRap1A [3], the Kd stood at 39 ± 15 nM.

B3: FAM-HANPO2 (dsDNA)
DNA 1: GGGTGGCGGGGTGGCG
DNA 2: CGCCACCCCGCCACCC
On to B3, for which the binding result was “binds” with HpRap1B [4] and “no binding” in the data set with HpRap1A [5].

B4: PICKU (SPR) (dsDNA)
DNA 1: TGAACTAGGAGCGAGGTGTGTTAC
DNA 2: GTAACACACCTCGCTCCTAGTTCACCTCTACGTCCTCCTGCTCC
Turning to B4, the binding result with HpRap1A [6] is listed as “no binding”. The Kd with HpRap1B [7] came out at 0.27 ± 0.08 nM.

B5: VIIrAbs (SPR) (dsDNA)
DNA 1: GGCAGGCGGTGTAGGGATGCGGC
DNA 2: GCCGCATCCCTACACCGCCTGCCCCTCTACGTCCTCCTGCTCC
Turning to B5, the Kd with HpRap1B [8] worked out at 64 ± 2 nM; with HpRap1A [9] it was 0.28 ± 0.09 nM.

B6: RPS0a (dsDNA)
DNA 1: AGAGGGCTGTGCACGGATGCTAT
DNA 2: ATAGCATCCGTGCACAGCCCTCTCCTCTACGTCCTCCTGCTCC
As for B6, the binding result in the data set with HpRap1B [10] was “no binding”. The Kd with HpRap1A [11] amounted to 10 ± 4 nM.

B7: RPL5a (dsDNA)
DNA 1: CTTGTGTGGTGCAGGGGTGGCAG
DNA 2: CTGCCACCCCTGCACCACACAAGCCTCTACGTCCTCCTGCTCC
For B7, the figures for the Kd with HpRap1B [12] and with HpRap1A [13] were 2 nM and 1.4 ± 0.3 nM, respectively.

B8: RPS0b (dsDNA)
DNA 1: ATTTCTTGGTGCGAGGGGGCTCT
DNA 2: AGAGCCCCCTCGCACCAAGAAATCCTCTACGTCCTCCTGCTCC
Consider B8, for which the binding result with HpRap1A [6] is listed as “no binding”. In addition, in the data set with HpRap1B [14], the Kd is 1.5 ± 0.4 nM.

Source of the values: PMC6510891, “Functional duplication of Rap1 in methylotrophic yeasts”.
